In US20250250357A1:
Where two headings read alike, the source gives them in different places.

Experiments:
[1] = biological target: human MSLN protein endogenously expressed on OVCAR3 tumor cells (human) (UniProt Q13421); experiment: FACS on OVCAR3 cells
[2] = biological target: human MSLN full-length protein (NCBI: AAH09272.1) expressed on HEK293T-hMSLN-B8 cells (human) (UniProt Q13421); experiment: FACS on HEK293T-hMSLN-B8 cells
[3] = biological target: human MSLN-R3 protein (Met487-Ser606 of NCBI AAH09272.1) expressed on HEK293T-hMSLN-R3 cells (human) (UniProt Q13421); experiment: FACS on HEK293T-hMSLN-R3 cells
human MSLN-R3 protein (Met487-Ser606 of NCBI AAH09272.1) expressed on HEK293T-hMSLN-R3 cells (human), sequence (Q13421 495-614): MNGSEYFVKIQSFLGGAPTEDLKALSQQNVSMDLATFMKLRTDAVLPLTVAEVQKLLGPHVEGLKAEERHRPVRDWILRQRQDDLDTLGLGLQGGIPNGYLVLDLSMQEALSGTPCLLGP

[4] = biological target: monkey MSLN full-length protein (NCBI: XP_028696439.1) expressed on HEK293T-monkey MSLN cells (monkey); experiment: FACS on HEK293T-monkey MSLN cells
[5] = biological target: human MSLN-R3-rFc protein (human) (UniProt Q13421); experiment: ELISA, antibody 1 nM
human MSLN-R3-rFc protein (human), sequence (Q13421 495-606): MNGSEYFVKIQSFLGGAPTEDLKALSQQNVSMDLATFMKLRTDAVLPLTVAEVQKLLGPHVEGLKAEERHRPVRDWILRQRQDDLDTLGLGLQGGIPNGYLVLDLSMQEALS

[6] = biological target: human MSLN-R3-rFc protein (human) (UniProt Q13421); experiment: ELISA, antibody 4 nM
[7] = biological target: human MSLN-R3-rFc protein (human) (UniProt Q13421); experiment: ELISA, antibody 20 nM
[8] = biological target: human MSLN-R3-rFc protein (human) (UniProt Q13421); experiment: ELISA, antibody 100 nM
[9] = biological target: human MSLN-R3-rFc protein (human) (UniProt Q13421); experiment: ELISA, antibody 0.0064 nM
[10] = biological target: human MSLN on OVCAR3 tumor cells (human) (UniProt Q13421); experiment: FACS, OVCAR3 cells
human MSLN on OVCAR3 tumor cells (human), sequence (Q13421 other isoform, or with tags, fused parts or gaps): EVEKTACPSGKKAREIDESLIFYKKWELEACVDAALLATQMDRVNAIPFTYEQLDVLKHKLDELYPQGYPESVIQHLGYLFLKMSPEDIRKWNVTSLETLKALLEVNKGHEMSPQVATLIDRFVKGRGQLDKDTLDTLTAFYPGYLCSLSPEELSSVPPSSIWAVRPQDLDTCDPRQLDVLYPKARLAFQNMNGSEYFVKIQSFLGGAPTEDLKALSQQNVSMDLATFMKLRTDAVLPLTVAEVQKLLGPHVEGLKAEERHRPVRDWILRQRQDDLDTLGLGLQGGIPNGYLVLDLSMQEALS

[11] = biological target: human MSLN on OVCAR3 tumor cells (human) (UniProt Q13421); experiment: FACS, OVCAR3 cells; remark: listed apart in the source
[12] = biological target: human MSLN on OVCAR3 tumor cells (human) (UniProt Q13421); experiment: FACS, OVCAR3 cells; remark: listed apart in the source
[13] = biological target: human MSLN on OVCAR3 tumor cells (human) (UniProt Q13421); experiment: FACS, OVCAR3 cells; remark: listed apart in the source
[14] = biological target: human MSLN-R3 on HEK293T-hMSLN-R3 recombinant cells (human) (UniProt Q13421); experiment: FACS, HEK293T-hMSLN-R3 cells
human MSLN-R3 on HEK293T-hMSLN-R3 recombinant cells (human), sequence (Q13421 495-614): as the sequence (Q13421 495-614) above

[15] = biological target: human MSLN-R3 on HEK293T-hMSLN-R3 recombinant cells (human) (UniProt Q13421); experiment: FACS, HEK293T-hMSLN-R3 cells; remark: listed apart in the source
[16] = biological target: human MSLN-R3 on HEK293T-hMSLN-R3 recombinant cells (human) (UniProt Q13421); experiment: FACS, HEK293T-hMSLN-R3 cells; remark: listed apart in the source
[17] = biological target: human MSLN-R3 on HEK293T-hMSLN-R3 recombinant cells (human) (UniProt Q13421); experiment: FACS, HEK293T-hMSLN-R3 cells; remark: listed apart in the source
[18] = biological target: monkey MSLN on HEK293T-monkey MSLN recombinant cells (monkey); experiment: FACS, HEK293T-monkey MSLN cells
[19] = biological target: monkey MSLN on HEK293T-monkey MSLN recombinant cells (monkey); experiment: FACS, HEK293T-monkey MSLN cells; remark: listed apart in the source
[20] = biological target: monkey MSLN on HEK293T-monkey MSLN recombinant cells (monkey); experiment: FACS, HEK293T-monkey MSLN cells; remark: listed apart in the source
[21] = biological target: monkey MSLN on HEK293T-monkey MSLN recombinant cells (monkey); experiment: FACS, HEK293T-monkey MSLN cells; remark: listed apart in the source
[22] = biological target: human MSLN-hFc protein (Acro, Cat. No. MSN-H5253) (human) (UniProt Q13421); experiment: ELISA on coated antigen, antibody 1 nM
human MSLN-hFc protein (Acro, Cat. No. MSN-H5253) (human), sequence (Q13421 other isoform, or with tags, fused parts or gaps limits assumed): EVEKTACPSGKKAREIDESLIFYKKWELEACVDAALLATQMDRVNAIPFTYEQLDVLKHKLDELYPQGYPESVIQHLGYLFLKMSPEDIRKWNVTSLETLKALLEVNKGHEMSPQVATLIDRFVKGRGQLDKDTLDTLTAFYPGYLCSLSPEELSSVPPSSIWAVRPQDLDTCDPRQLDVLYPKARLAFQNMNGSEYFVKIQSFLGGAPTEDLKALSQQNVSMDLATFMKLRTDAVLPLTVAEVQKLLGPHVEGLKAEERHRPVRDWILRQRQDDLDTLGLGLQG

[23] = biological target: human MSLN-hFc protein (Acro, Cat. No. MSN-H5253) (human) (UniProt Q13421); experiment: ELISA on coated antigen, antibody 1 nM; remark: listed apart in the source
[24] = biological target: human MSLN-hFc protein (Acro, Cat. No. MSN-H5253) (human) (UniProt Q13421); experiment: ELISA on coated antigen, antibody 10 nM
[25] = biological target: human MSLN-hFc protein (Acro, Cat. No. MSN-H5253) (human) (UniProt Q13421); experiment: ELISA on coated antigen, antibody 0.1 nM
[26] = biological target: human MSLN-hFc protein (Acro, Cat. No. MSN-H5253) (human) (UniProt Q13421); experiment: ELISA on coated antigen, antibody 100 nM
[27] = biological target: human MSLN-hFc protein (Acro, Cat. No. MSN-H5253) (human) (UniProt Q13421); experiment: ELISA on coated antigen, antibody 0.1 nM; remark: listed apart in the source
[28] = biological target: human MSLN-hFc protein (Acro, Cat. No. MSN-H5253) (human) (UniProt Q13421); experiment: ELISA on coated antigen, antibody 0.01 nM
[29] = biological target: human MSLN-hFc protein (Acro, Cat. No. MSN-H5253) (human) (UniProt Q13421); experiment: ELISA on coated antigen, antibody 0.001 nM
[30] = biological target: human MSLN-hFc protein (Acro, Cat. No. MSN-H5253) (human) (UniProt Q13421); experiment: ELISA on coated antigen, antibody 0.001 nM; remark: listed apart in the source
[31] = biological target: human MSLN-hFc protein (Acro, Cat. No. MSN-H5253) (human) (UniProt Q13421); experiment: ELISA on coated antigen, antibody 0.0001 nM
[32] = biological target: human MSLN-hFc protein (Acro, Cat. No. MSN-H5253) (human) (UniProt Q13421); experiment: ELISA, coated human MSLN-hFc, antibody 1 nM
[33] = biological target: human MSLN-hFc protein (Acro, Cat. No. MSN-H5253) (human) (UniProt Q13421); experiment: ELISA, coated human MSLN-hFc, antibody 1 nM; remark: listed apart in the source
[34] = biological target: human MSLN-hFc protein (Acro, Cat. No. MSN-H5253) (human) (UniProt Q13421); experiment: ELISA, coated human MSLN-hFc, antibody 10 nM
[35] = biological target: human MSLN-hFc protein (Acro, Cat. No. MSN-H5253) (human) (UniProt Q13421); experiment: ELISA, coated human MSLN-hFc, antibody 10 nM; remark: listed apart in the source
[36] = biological target: human MSLN-hFc protein (Acro, Cat. No. MSN-H5253) (human) (UniProt Q13421); experiment: ELISA, coated human MSLN-hFc, antibody 0.1 nM
[37] = biological target: human MSLN-hFc protein (Acro, Cat. No. MSN-H5253) (human) (UniProt Q13421); experiment: ELISA, coated human MSLN-hFc, antibody 100 nM
[38] = biological target: human MSLN-hFc protein (Acro, Cat. No. MSN-H5253) (human) (UniProt Q13421); experiment: ELISA, coated human MSLN-hFc, antibody 0.1 nM; remark: listed apart in the source
[39] = biological target: human MSLN-hFc protein (Acro, Cat. No. MSN-H5253) (human) (UniProt Q13421); experiment: ELISA, coated human MSLN-hFc, antibody 100 nM; remark: listed apart in the source
[40] = biological target: human MSLN-hFc protein (Acro, Cat. No. MSN-H5253) (human) (UniProt Q13421); experiment: ELISA, coated human MSLN-hFc, antibody 0.01 nM
[41] = biological target: human MSLN-hFc protein (Acro, Cat. No. MSN-H5253) (human) (UniProt Q13421); experiment: ELISA, coated human MSLN-hFc, antibody 0.01 nM; remark: listed apart in the source
[42] = biological target: human MSLN-hFc protein (Acro, Cat. No. MSN-H5253) (human) (UniProt Q13421); experiment: ELISA, coated human MSLN-hFc, antibody 0.001 nM
[43] = biological target: human MSLN-hFc protein (Acro, Cat. No. MSN-H5253) (human) (UniProt Q13421); experiment: ELISA, coated human MSLN-hFc, antibody 0.001 nM; remark: listed apart in the source
[44] = biological target: human MSLN-hFc protein (Acro, Cat. No. MSN-H5253) (human) (UniProt Q13421); experiment: ELISA, coated human MSLN-hFc, antibody 0.0001 nM

human MSLN full-length protein (NCBI: AAH09272.1) expressed on HEK293T-hMSLN-B8 cells (human), sequence (Q13421 other isoform, or with tags, fused parts or gaps limits assumed): as the sequence (Q13421 other isoform, or with tags, fused parts or gaps) above, with R14P counted along it
human MSLN protein endogenously expressed on OVCAR3 tumor cells (human), sequence (Q13421 other isoform, or with tags, fused parts or gaps): as the sequence (Q13421 other isoform, or with tags, fused parts or gaps) above

Substance: hIgG1 negative control antibody (anti-hel-hIgG1, against hen egg lysozyme)
- Maximum mean fluorescence intensity [1]: 122
- Maximum mean fluorescence intensity [2]: 267
- Maximum mean fluorescence intensity [3]: 102
- Maximum mean fluorescence intensity [4]: 102

Substance: anti-human MSLN antibody (purchased from Acro, Cat. No. MSN-M30)
- OD450 nm [5]: 0.11
- OD450 nm [6]: 0.23
- OD450 nm [7]: 0.86
- OD450 nm [8]: 1.11
- OD450 nm [9]: 0.16

Substance: Tab084 (NC) (scFv)
- Maximum MFI [10]: 336 MFI
- Maximum MFI [11]: 209 MFI
- Maximum MFI [12]: 469 MFI
- Maximum MFI [13]: 454 MFI
- Maximum MFI [14]: 439 MFI
- Maximum MFI [15]: 92 MFI
- Maximum MFI [16]: 304 MFI
- Maximum MFI [17]: 156 MFI
- Maximum MFI [18]: 279 MFI
- Maximum MFI [19]: 104 MFI
- Maximum MFI [20]: 231 MFI
- Maximum MFI [21]: 172 MFI
- OD450 [22]: 0.06 OD450
- OD450 [23]: 0.07 OD450
- OD450 [24]: 0.07 OD450
- OD450 [25]: 0.13 OD450
- OD450 [26]: 0.07 OD450
- OD450 [27]: 0.06 OD450
- OD450 [28]: 0.07 OD450
- OD450 [29]: 0.11 OD450
- OD450 [30]: 0.07 OD450
- OD450 [31]: 0.06 OD450

Substance: Tab084 (NC), m971 VH-(G4S)3-VL-his (scFv)
- OD450 nm [32]: 0.05
- OD450 nm [33]: 0.06
- OD450 nm [34]: 0.05
- OD450 nm [35]: 0.07
- OD450 nm [36]: 0.05
- OD450 nm [37]: 0.05
- OD450 nm [38]: 0.07
- OD450 nm [39]: 0.07
- OD450 nm [40]: 0.05
- OD450 nm [41]: 0.06
- OD450 nm [42]: 0.05
- OD450 nm [43]: 0.06
- OD450 nm [44]: 0.05
